In article PMC4945878:

Legend:
[1] = target: Claspin #25 (N-terminal polypeptide) (human, UniProt Q9HAW4 1-896); test: EMSA; plus #13 DE/A (aa897-1209) 1.5 or 3 pmol, no significant inhibition; 10 mM Tris-HCl pH 7.5, 40 ug/ml BSA, 1 mM DTT, EDTA (50 mM as printed for EMSA; 0.5 mM for filter binding), 20 mM K-glutamate, 8% glycerol, 30 C, 1 h
[2] = target: Claspin Cdel2 (human, UniProt Q9HAW4 1-1339, del1101-1209); test: EMSA; higher binding than full-length; 10 mM Tris-HCl pH 7.5, 40 ug/ml BSA, 1 mM DTT, EDTA (50 mM as printed for EMSA; 0.5 mM for filter binding), 20 mM K-glutamate, 8% glycerol, 30 C, 1 h
Claspin Cdel2, sequence (Q9HAW4 other isoform, or with tags, fused parts or gaps del1101-1209): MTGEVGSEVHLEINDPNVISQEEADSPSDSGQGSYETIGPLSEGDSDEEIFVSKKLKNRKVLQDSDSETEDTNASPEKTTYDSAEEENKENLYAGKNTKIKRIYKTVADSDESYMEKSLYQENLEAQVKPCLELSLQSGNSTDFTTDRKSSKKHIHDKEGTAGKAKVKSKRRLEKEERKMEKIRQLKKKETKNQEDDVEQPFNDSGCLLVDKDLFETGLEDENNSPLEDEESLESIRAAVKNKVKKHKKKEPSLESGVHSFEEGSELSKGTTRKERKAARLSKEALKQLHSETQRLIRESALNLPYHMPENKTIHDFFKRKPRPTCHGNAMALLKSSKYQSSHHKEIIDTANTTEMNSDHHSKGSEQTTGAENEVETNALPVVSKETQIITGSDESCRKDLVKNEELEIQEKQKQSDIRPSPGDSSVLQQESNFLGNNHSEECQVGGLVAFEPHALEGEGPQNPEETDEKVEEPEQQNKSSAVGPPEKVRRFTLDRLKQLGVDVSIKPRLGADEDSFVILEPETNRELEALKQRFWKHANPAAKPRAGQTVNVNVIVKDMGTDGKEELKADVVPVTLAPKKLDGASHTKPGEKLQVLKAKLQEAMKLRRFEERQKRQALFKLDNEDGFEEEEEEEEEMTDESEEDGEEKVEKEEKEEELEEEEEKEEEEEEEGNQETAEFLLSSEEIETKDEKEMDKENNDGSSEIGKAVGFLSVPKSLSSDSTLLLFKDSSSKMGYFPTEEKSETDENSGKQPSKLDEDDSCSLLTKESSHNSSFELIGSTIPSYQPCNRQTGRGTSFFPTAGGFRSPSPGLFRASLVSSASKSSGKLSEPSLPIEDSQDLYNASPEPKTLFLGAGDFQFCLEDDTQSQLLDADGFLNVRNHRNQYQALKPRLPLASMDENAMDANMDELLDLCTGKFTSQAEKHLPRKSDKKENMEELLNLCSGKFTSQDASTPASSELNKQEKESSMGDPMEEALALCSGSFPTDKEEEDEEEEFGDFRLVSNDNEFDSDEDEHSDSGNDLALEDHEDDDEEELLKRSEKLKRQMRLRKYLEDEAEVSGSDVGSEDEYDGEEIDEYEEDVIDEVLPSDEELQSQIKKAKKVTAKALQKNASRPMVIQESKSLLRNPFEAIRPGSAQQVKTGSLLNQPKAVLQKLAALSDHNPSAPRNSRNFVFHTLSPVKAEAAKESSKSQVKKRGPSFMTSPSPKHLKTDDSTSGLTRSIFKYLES

[3] = target: Claspin wild-type full-length (human, UniProt Q9HAW4 1-1339); test: EMSA; 0.5 and 1.0 pmol protein, 20 fmol DNA; much lower affinity than C-terminal deletions; 10 mM Tris-HCl pH 7.5, 40 ug/ml BSA, 1 mM DTT, EDTA (50 mM as printed for EMSA; 0.5 mM for filter binding), 20 mM K-glutamate, 8% glycerol, 30 C, 1 h
Claspin wild-type full-length, sequence (Q9HAW4 whole entry): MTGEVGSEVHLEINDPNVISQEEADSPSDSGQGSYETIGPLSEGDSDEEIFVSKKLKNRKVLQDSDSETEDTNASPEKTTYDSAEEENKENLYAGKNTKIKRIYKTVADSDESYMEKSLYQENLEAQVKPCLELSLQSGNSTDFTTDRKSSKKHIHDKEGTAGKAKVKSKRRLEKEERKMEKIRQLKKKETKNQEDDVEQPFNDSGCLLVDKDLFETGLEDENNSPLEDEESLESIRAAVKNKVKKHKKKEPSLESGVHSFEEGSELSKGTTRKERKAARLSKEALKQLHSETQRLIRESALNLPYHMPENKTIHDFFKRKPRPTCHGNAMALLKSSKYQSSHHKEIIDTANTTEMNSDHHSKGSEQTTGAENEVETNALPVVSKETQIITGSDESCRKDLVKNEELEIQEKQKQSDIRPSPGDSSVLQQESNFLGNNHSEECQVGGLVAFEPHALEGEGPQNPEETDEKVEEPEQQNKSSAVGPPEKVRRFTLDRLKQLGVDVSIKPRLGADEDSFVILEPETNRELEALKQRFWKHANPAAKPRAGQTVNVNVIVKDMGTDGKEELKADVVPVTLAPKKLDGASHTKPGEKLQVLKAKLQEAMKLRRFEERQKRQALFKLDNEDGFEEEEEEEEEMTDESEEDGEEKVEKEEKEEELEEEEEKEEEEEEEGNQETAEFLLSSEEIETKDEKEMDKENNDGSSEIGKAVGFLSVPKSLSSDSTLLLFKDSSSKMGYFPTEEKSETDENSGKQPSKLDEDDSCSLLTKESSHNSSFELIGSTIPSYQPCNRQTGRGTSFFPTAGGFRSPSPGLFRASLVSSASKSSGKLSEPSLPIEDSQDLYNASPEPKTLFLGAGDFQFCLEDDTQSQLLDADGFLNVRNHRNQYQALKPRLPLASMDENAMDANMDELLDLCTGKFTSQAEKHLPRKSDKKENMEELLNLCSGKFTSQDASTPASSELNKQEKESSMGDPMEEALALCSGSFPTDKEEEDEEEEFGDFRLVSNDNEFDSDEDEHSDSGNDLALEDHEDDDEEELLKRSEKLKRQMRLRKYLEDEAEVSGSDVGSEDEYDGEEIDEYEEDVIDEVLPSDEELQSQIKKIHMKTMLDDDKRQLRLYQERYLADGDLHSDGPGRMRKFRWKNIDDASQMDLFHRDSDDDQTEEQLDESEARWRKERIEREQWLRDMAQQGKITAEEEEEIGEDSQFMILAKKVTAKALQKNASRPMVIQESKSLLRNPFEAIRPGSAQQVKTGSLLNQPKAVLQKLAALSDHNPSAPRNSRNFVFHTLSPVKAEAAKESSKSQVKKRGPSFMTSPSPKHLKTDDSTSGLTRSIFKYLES

[4] = target: Claspin Cdel1 (human, UniProt Q9HAW4 1-985+=GS+1210-1339, internal_change); test: EMSA; higher affinity than full-length; 10 mM Tris-HCl pH 7.5, 40 ug/ml BSA, 1 mM DTT, EDTA (50 mM as printed for EMSA; 0.5 mM for filter binding), 20 mM K-glutamate, 8% glycerol, 30 C, 1 h
Claspin Cdel1, sequence (Q9HAW4 other isoform, or with tags, fused parts or gaps): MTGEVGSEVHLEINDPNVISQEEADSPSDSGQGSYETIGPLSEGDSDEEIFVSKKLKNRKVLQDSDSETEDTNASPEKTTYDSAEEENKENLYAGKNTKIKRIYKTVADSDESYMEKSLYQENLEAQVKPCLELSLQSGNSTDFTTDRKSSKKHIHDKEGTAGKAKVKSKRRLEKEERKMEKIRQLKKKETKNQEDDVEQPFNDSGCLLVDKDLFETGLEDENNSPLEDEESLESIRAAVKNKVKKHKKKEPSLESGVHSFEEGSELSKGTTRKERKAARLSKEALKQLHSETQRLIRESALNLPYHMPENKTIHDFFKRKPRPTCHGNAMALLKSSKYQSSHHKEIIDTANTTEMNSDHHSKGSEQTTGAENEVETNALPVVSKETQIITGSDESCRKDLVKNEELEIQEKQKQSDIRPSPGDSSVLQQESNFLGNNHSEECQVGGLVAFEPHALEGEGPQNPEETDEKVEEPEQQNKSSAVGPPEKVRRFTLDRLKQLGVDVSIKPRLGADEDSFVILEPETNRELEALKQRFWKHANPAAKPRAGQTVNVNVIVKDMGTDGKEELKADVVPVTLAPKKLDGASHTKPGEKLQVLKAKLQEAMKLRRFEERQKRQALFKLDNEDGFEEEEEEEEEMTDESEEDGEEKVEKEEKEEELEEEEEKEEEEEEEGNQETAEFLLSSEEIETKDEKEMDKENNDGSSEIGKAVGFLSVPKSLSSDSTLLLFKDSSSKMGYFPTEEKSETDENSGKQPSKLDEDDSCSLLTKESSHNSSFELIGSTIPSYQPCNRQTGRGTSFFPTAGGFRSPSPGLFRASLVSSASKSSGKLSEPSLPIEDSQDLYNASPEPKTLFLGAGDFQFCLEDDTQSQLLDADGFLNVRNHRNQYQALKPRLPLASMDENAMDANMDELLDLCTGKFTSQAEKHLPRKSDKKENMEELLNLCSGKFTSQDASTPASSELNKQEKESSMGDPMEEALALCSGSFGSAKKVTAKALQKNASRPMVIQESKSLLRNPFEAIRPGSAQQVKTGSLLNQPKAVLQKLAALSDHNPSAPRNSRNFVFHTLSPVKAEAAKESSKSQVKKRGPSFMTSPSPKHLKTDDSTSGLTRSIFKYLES

Measured: binding result

Claspin #25 (N-terminal polypeptide), sequence (Q9HAW4 1-896): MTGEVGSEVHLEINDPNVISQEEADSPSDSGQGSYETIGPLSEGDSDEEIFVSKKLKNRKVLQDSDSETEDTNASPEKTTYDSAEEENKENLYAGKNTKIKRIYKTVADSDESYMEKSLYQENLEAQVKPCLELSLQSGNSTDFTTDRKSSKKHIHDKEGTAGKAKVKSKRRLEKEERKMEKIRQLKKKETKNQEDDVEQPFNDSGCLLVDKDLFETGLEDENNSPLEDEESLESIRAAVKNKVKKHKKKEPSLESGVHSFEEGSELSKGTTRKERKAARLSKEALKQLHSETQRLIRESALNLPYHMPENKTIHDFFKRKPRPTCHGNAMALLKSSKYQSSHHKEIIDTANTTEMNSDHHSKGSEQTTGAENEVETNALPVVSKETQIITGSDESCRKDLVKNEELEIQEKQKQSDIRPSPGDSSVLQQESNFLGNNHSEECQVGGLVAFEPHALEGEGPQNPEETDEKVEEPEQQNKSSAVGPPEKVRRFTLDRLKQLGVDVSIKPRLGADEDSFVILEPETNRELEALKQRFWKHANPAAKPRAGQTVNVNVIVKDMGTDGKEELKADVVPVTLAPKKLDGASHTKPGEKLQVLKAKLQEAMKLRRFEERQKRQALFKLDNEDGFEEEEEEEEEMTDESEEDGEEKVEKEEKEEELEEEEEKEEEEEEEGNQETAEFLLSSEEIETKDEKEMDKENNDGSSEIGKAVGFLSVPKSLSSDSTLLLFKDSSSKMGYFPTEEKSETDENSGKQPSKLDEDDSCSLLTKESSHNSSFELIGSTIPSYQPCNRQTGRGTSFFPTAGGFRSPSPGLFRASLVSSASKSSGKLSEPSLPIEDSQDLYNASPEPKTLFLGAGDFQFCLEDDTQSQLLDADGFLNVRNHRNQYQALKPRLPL

B1: Y-fork DNA (mixed)
DNA 1: AACGTCGTGACTGGGCACTTGATCGGCCAACCTTTTTTTTTTTTTTTTTTTTTTTTTTTTTTTT
DNA 2: TTTTTTTTTTTTTTTTTTTTTTTTTTTTTTTTGGTTGGCCGATCAAGTGCCCAGTCACGACGTT
binds: all assays above
